From patent publication US20240287161A1 (NATIONAL UNIVERSITY CORPORATION TOTTORI UNIVERSITY, published 2024)

T1: HCoV-NL63 trimeric S protein (amino acids 22-1293) with T4 foldon, histidine tag and strep-tag (HCoV-NL63, UniProt Q6Q1S2 23-1293)
T1 sequence: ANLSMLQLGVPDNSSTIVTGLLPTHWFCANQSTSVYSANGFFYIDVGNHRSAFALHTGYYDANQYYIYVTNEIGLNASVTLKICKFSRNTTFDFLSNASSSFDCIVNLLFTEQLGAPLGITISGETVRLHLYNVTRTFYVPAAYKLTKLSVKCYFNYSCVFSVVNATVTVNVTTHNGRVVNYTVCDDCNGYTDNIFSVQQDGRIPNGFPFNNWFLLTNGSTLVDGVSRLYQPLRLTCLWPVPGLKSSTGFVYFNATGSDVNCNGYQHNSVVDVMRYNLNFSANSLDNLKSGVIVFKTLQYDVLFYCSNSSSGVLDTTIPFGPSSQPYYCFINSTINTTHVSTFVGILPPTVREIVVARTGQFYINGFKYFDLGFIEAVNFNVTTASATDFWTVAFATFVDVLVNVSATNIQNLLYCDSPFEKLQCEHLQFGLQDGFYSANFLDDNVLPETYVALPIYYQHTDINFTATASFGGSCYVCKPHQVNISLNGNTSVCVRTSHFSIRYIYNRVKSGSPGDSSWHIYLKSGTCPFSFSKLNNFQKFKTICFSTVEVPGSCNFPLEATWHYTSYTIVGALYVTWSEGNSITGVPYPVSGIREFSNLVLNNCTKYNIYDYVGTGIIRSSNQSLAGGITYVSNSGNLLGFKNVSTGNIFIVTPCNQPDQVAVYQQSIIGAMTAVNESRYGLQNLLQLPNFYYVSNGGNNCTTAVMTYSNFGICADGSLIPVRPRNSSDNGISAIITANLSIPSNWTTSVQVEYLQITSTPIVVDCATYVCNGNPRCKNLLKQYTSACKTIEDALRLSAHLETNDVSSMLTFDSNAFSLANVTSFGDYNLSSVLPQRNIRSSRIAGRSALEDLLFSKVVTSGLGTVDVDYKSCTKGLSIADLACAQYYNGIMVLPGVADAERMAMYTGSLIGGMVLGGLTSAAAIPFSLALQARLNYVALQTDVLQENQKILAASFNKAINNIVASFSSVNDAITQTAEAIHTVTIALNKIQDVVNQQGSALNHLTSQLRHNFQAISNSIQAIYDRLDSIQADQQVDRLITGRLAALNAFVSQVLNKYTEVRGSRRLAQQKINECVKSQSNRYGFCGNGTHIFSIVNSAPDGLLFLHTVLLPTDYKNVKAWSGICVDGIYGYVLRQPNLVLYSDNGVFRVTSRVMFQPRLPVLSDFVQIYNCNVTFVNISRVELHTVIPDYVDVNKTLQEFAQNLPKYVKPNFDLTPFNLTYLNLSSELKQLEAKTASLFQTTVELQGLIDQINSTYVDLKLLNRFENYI

T2: HCoV-229E trimeric S protein (amino acids 12-1109) with T4 foldon, histidine tag and strep-tag (HCoV-229E, UniProt P15423 12-1112)
T2 chain: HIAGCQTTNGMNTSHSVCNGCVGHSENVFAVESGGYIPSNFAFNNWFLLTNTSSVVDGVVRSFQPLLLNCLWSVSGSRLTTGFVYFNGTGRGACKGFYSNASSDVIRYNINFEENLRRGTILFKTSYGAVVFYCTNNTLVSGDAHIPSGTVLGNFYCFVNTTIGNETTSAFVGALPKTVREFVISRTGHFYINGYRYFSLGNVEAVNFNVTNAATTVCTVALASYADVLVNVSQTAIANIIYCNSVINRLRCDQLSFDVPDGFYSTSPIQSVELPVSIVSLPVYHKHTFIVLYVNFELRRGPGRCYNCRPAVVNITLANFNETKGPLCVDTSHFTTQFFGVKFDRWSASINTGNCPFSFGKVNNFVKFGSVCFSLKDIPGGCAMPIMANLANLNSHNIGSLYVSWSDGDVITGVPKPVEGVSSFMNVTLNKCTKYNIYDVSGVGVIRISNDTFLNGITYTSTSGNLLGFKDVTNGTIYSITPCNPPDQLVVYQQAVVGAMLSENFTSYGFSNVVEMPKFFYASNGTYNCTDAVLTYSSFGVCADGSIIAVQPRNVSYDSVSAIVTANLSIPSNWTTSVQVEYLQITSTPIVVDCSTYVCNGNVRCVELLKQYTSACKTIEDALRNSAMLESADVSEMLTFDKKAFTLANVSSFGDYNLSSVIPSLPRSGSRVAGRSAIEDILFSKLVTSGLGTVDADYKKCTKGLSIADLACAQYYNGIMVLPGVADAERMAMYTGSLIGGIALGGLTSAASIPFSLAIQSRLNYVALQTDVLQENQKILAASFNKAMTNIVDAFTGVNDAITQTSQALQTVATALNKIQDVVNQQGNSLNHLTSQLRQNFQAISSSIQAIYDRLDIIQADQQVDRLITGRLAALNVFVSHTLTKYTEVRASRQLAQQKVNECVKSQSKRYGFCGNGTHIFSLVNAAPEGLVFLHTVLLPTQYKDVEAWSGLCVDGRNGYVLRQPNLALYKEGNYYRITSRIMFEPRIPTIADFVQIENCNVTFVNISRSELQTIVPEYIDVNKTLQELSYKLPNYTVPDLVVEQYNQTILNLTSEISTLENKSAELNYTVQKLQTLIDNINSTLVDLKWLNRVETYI

B1: NT-108 (recombinant human IgG1/kappa antibody) (antibody, V domains shown)
VH: EVQLQQSGPGLVKPSQTLSLTCSISGDSVSSNSAAWNWIRQSPSRGLEWLGRTYYRSKWYNDYAGTVKSRIAINPDTSKNQFSLHLNSVTPEDTAVYFCARVISVAGYAFDIWGQGTMVTVSS
VL: EIVLTQSPGTLSLSPGERATLSCRASQSVSSTFLAWYQQKPGQAPRLLIYGASYMATGIPDRFSGSGSGTDFTLTISRLEPEDFAVYYCQQYGSSLTFGGGTKLEIK
B2: NT-193, human IgG3 subclass (antibody, V domains shown)
VH: EVQLQQWGAGLLKPSETLSLTCAVYGGSFSGYYWSWIRQPPGKGLEWIGEINHSGSTNYNPSLKSRVTISVDTSKNQFSLKLSSVTAADTAVYYCARGWDLDYYYGMDVWGQGTTVTVSS
VL: DIRMTQSPSAMSASVGDRVTVTCRASQGIGNYLAWFQLKPGKVPKRLIYAASSLQSGVPARFSGGGSGTEFTLTISSLQPEDFATYYCLQHGFLPWTFGQGTKLEIK

Assays:
[1] = molecular target: T1, HCoV-NL63 trimeric S protein (amino …); test: ELISA on coated S-trimeric antigen, anti-human IgG-HRP [Human IgG1, NT-108]
[2] = molecular target: T1, HCoV-NL63 trimeric S protein (amino …); test: ELISA on coated S-trimeric antigen, anti-human IgG-HRP [Human IgG3, NT-193]
[3] = molecular target: T2, HCoV-229E trimeric S protein (amino …); test: as above

| Binder | binding result [1] | binding result [2] | binding result [3] |
| --- | --- | --- | --- |
| B1 | no binding (tested: 1000 ng/ml) | – | – |
| B2 | – | no binding (tested: 1000 ng/ml) | no binding (tested: 1000 ng/ml) |
